# Experiment: label from the status in PepcDB records
row,Sequence,protein production
1,MVNQEKTLDVGFTHADFAALLDRYDYHFNPGDIVAGTVFSIEPKGALIDIGAKTAAYIPIQEMSINRIESPEEVLQPNETREFFILADENEEGQLTLSIRRIEYMRAWERVRQLQAEDATVRSQVFATNRGGALVRIEGLRGFIPGSHISTRVNKEELVGEELPLKFLEVDEERNRLVLSHRRALVERKMNKLEVGEVVVGTVRGIKPYGAFIDIGGVSGLLHISEISHDHIDTPHSVFNVNDQVKVMIIDLDAERGRISLSTKQLEPEPGDMVKNPQLVYEKAEEMAERYRQQLLQQQQQAAGETPEEGMEDIPEATEDDSPAPILQEALEHHHHHH,failed
2,MVPAAMRGLNLALVDIGAGTSDIAITGQGTISGYAMVPSAGDEITEALASALILDFNTAERVKRQLSTRENLTFTDVVGQRHTLAAAELMEIIKPAVTELARQVATQIILLNGKPPQAVLLIGGGSLTPGLAAALAGQLEISPERVALEHHHHHH,failed
3,MVPKFYKLSNGFKIPSIALGTYDIPRSQTAEIVYEGVKCGYRHFDTAVLYGNEKEVGDGIIKWLNEDPGNHKREEIFYTTKLWNSQNGYKRAKAAIRQCLNEVSGLQYIDLLLIHSPLEGSKLRLETWRAMQEAVDEGLVKSIGVSNYGKKHIDELLNWPELKHKPVVNQIEISPWIMRQELADYCKSKGLVVEAFAPLCHGYKMTNPDLLKVCKEVDRNPGQVLIRWSLQHGYLPLPKTKTVKRLEGNLAAYNFELSDEQMKFLDHPDAYEPTDWECTDAP,failed
4,MVQELLKQLQNGEAKFADVLAYIESRFEHQPTAFKNGQQQNAATENQGSAKVFSLAQIEGLNQTETLSLFAEHYAAVLNTPEGTDHQNIRQFMQHGWDGVTFEGEALQAK,failed
5,MVQIAGTPVPLSAKSRGPNALSSLLAALFLLLSQPASGAEAKQCIDNAELDAADKAFNSLHYAKADSLYQSMLQTGDQSSTLYWKLARLNISIAEAIDPSERKKRIPFYNKAVEYARKSVQLDENNASAHTWLAAALALKADKIGAKEKLNRAAEIKRELDKALALNPNDDVAWSMLGSYNFEASKIGWFSRFMGSTFVGKMPKGSREEAEKDFKKAISLNPRVIRHYHELALLYLEEDRKQEALNTLRIAETRPVLMKSDVRRLKEIKKLIAKLSKEIEEK,failed
6,MVQSAPASEIAALILRGFDDYREQFREITDGARARFEQAQWQEAQRASAQRINLYEEKVAETVAGLRAGLADSELLDVERWPIIKSAYIAQIDLRLDDELAETWFNSIFCGLFSHDNISDGTMFVHTTRPSLRAHARAPYTRTYRPGGDLRQALEKIFDDYRFDVPYDDRERDLERIDALLHSNLPDWVCKDPDLAIELIGSVFYRNKGAYLVGRLFTPDEQWPLVFPLLHREDHGIQFDTVITDEAEVSIIFSFTRSYFMVDVPVPAELVAFLKRLLPGKHLAELYTSIGFYKQGKSEFYRALINHLATTDDRFVMAPGVRGMVMSVFTLPGFNTVFKIIKDRFNPSKSVDHATVIQKYQLVKNHDRVGRLADTQQFADFRFPVSKFEPECLAELLEVAPSTVVMEGDVVLIRHCWTERRMTPLNIYLENASEAQTREALNDYGLAIKQLAAANIFPGDMLLKNFGVTRHGRVVFYDYDEICYLTEVNFRYIPEPRFPEDEMSSEPWYSVGPNDVFPEEFPRFLFVDLNQRRLFAKLHGNLYDAKYWQGLQEQIREGKVIDVFPYRRQETPEQLLG,failed
7,MVRADEMMDICMLAGEIMLINGAETYRVEETLERMAKAGQFRNVHSFVTTTGIFLSFEEEGAGDVMQMIRVDDRMQDLNKVTLVNQVSREFVNGEIDAAEALTKLQNIAKQPMNYSPLLLHTASGVAGGAFSYLFGGNLFDTLPAFIAGFVASMAVVHLQSYLKVRFFAEFMAAFTGGAVAILLVLIGLGENVDQVIIGTLMPLVPGIPLTNAVRDLISGDLLAGVTRGAECFVTSLSIATGIALAIALLS,failed
8,MVRKGQMIIGAFACLIASMSWGAMFPVADHALEYIDPFYFSLIRYGAVAIMLIVLLLMKEGKQAFRLEGRGRLLVFFGTMAFTVYNVLIFLGQMLMGKSGVMVASIMEALMPMISICILWGYKRVKPKKYMITSMIIAFIGAVFVITKGDVSFFLTLKDNMFSLACIFVGVVGWVIYTMGGQTCSDWSTLRYSTLTCVFGTTVTGIITVLITSLGYVSVPSMGTISVVKYDLLFMMTLPGIVALLAWNYGVKILSSINGILFINFVPITTLVIMMMQGYQITMFDIVGTLFVIAALIRNNVCQRKEENINKKMLQEEQLRQAV,failed
9,MVRVGMRAAPRVSLEALKAALGGLKLSEAKVYLITDWQDKRDQARYALLLHTGKKDLLVPDAFGPAFPGGEEALSELVGLLLAQGARRFYEAVVSPGEMTALLDLPPEELLKRVMAIANPTDPGIYLKRAA,not failed
10,MVRVLSAGPELAFRSGDVVAPARTHPLVAAAPSCPMTAAAPRERADRWPRREDLFAIAYYLAAAAVLAWAGYAAWRIGVVLAGGALQQVGVRSCRQRDASRCVNATFDRIALYVVLGQASFFLTTALAAAVTGGEQSPLILPFLGSYFVAVSVVGDRVATRGLLAATAFGAAVLALLPDAVAGPALPALQRGVLTVVSVLGVGALLAPAHAETRRKRDQVARARSEMVSDALSRAQGLEQVGAKVAHELKNPLTGVKALVQLGLRNPAEAASHERLEVVDREVTRMQEIIQNYLSFNRPLQSVNPRQVALGPLVSDTMLVLSARADEARVRLYARGDASLEADPRRLKEALLNLVANAIEATPAGGEVVVEARELSGDEVELVVRDTGRGMPPETLRRIGTPFFTTRDDGTGLGVVLARAVIVQHGGTLRYESEPGSGTKVLVTLPRAAKRSGDVARAAGG,failed
11,MVRVPLTAEELERGQRLGELLRSARGDMSMVTVAFDAGISVETLRKIETGRIATPAFFTIAAVARVLDLSLDDVAAVVTFGPVSTS,not failed
12,MVSAAGELGTLRQRAWAAAANVVDPEIPVLTIEDLGVLRDVTVSGDRIEVSITPTYSGCPAMTMIALEIELALAREGIAGAKITTVLSPAWTTDWMSDAGRRKLRDYGIAPPLSGGGRRALFGEQQVACPQCGSIATTVLSEFGSTSCKALWRCLDCREPFDYFKCH,failed
13,MVSACGLIALGLDNQAARMAARLRDLAREWRALPPHAARRGAVAEQVAVLDRRHGLYSRALLLNYGALFAFVVTSLLWLGQAYWSVPPELPVLVFGLGVAMLAAMAVLVIASITLARSTIEAEAAEVLRERRAPPASGRPAPARG,failed
14,MVSANREMAVYCFDTLVSHYNNEETPPPAFEEANHPLFVTWKKIVNGGEPRLRGCIGTLEARRLISGFKDYALTSALRDRRFPPIQAKELPSLQCTVSVLTDYEDAEDYLDWEVGKHGIIIEFTEPETNTKRSATYLPEVPAHEGWTKIEAIDSLVRKAGYNGVITEAVRRRINLTRYQSTLFSMHYSEYLSYVKATRGVVGPVINGINKHAFA,failed
15,MVSLIAKIHRRRAYLTVIAIMTFIVRLIPSRNFTLAGNDAYIHHDIVMRIAREGLGIIGHDIPSLMGLKAYAYPPLFHVMGYGLYLLFRSELVFFFISPLLGTATVLVIYKVARETFEREEVALLSAFLFSMVPSFVARTSVFIPESMGLLLTSGILYMLVKYLKTTPGYPDIDKFELKAFSNLFRGDLRYILGGLALFVIYLFTHRGWVFLLIALLLLAVTFLTPSFRKRPLEFGLIFLLIGAGIIEFITFAARFQSVPVTILGFPKWMGVLQLILGIYGASLLLRSKNPIHRFLIIWATAFMIIGTYSFRFRDPYAAIPLSLMGGYAFSEVKGRLYASKRFKSYSIMKRDVKPFLRTGIFALLVLMPLAQGAAIAYTGVTTPSPQQNAAFRWINDNTPQDAVFLSAIEDSYSLIGNTHRRDVLLWKTVYEGFMGSAPSLKENTMTRDEVSAIFQSSIPSETSYLLERNNISYIYISKSMHMKGIGLQLPVDPHFKTCFVSGDVSVYRYIKNPGIQSNYSSITVNGEDGKVVEFIEKFWNGYSQGTEPSHQGVSTL,failed
16,MVSNGSIIHVNQNQFMMLVDGGKIVDYTAEPGYFKVENSASPSLFGGQFGDALKETFSRFKFGGTTPMKQEVFYVNLQEIKGIKFGTPNPLQYFDNFYNAELFLRTFGNYSIKITDPIKFFKEACPRDAENVHIDEINEQYLSEFLEALQAAISQMSMEGERISFIPSKGTVLSKHMSEILDDSWKELRGMEVLSVGIASISYDDESKELINMRNKGAMLGDPGVREGYVQGSIARGMEAAGSNQAGAGMAFMGMGMGMNAAGGFMGQASQTNMQQMQMNQAAQRAAQGAGQQQGAGAKAAGEWFCTECGHKNTGKFCAECGTPKPQGSGCPSCGAELKAGAKFCPECGTKLLEHHHHHH,not failed
17,MVSRQEGTLYSRKRDFTVCGEEFHNSFKKSKQEDQSQSTLFNERPKSESMRSITFDFELHLHTPLPSDWQTKMSLDLELNLSPSGSPSRTTTKKYESSSIHNETVSSSKIKVLTNTSKKSIIGTGLSRSPSWLAFEGGDDNDVDHKGQEMVTTVCMKCHMLVMLCTSTPVCPNCKFMHPHDHSSTKLFKPSNLLRLLC,failed
18,MVSYPVWDSAMFAYTISSHILLVTLTLGLALLITISEFIGIKYKNRYFLTLARKASTALVINFAVGTASGIFMAVELYLFWPEFMKVVGAVAMSAFYAEVFAFLLESITLMMYVYFWDNFKNRWNHWLTSIGVLVGTGGSAALITDVNAWMNTPEGSFNIPYYLKTGIITDVNPWKVFWEPSTFAEQFHMYAVEYFAGSMMLLGYFAYKYLRSSGADERLVYSAGLKILSVIAIIDIIIVGASGSNELDTLLVVEPLKYAALEQDMVPVTYGAPEHIFGIIINGHPAYYVNLPLAQSLLAYPFTFGHGYIPGLSSYPSSVWPPSFVHDTLDLMVGFGLLMGFFWLIVVIMYFMKKDPLNKRSVLKALMFFSGMAVYTMEDGWYTAEVGRVPGIILYDKPPYYVMTIGQAASTSPVVFPLGMAIIIFYIVLIPLTLYFMAKVLKVSNIEDDLRHADDDLSKVGKSTPAGMR,failed
19,MVTKLALLGAGRIGKVHAKAITTDSRAKLVAVVDAMAGAAEAIAREAQCKVSTIDEVLADKTIDAVIICTPTNTHADLIERFARAGKAIFCEKPVDLDVARAEACAKVVEETGAKVMLGFNRRFDPHFQAVHKAIEDGRIGKVEMVTITSRDPGPPPAEYIKVSGGIFRDMTIHDFDMARFLLGEEVESVFATGSVLVNPEIGALGDFDSASIILTTKSGRQAIISNSRRATYGYDQRIEVHGSEGSAAAENQRPVSIEIANADGYTRPPLHDFFMTRYTTAYAAEIAAFIDSIENNVSPSPSIKDGLIALKLADAALKSATSKTVVTIG,failed
20,MVTLSDPNRRSRRIKRITIVGCLGNLLLTIGKFFSGFVGHSGAMIADAVHSLSDLLTDFVVFIFISISGKPSDKNHDYGHGKFETLATAIIAVTLIIIGAMLCSDGLTKVYRYLRFGDELARPGLIALLMAFVSIVAKEWLFRITRCVGKEENSRSVIANAWHHRSDAYTSVATFIGIGCAFLLGRGWMILEPLSAAVVSVFIIKVGFQMAVPAFRDLLEQSLPDDIEEEIEKIICSESMVKGVRRIRTRNIGNYYAVEADILMDGGLSVALSHAATQRVEKLLRGRYGQPTHIVIHVEPFS,failed
21,MVTLTLLEPQQKTPLKQWCFENSSVIRIGRAADNHVILSDNLVSRHHLEIRQVSSGGGGSWQVVSKGTNGTFLNGVLVIQDALPNNALLQLAQGGPILQFQVQGIIPPEWQSISGSDSPLSGRGSLAEKSSPELSNNPGSLTCTHEGNSPQNLFCIHCGQPLSVIQTIRHYQVLRTLGQGGMGTTYLAWDAAGVIVGHPKLLVLKQMNADMARIAKAQELFEREAYTLKSLDHPGIPRYYDFFVEGGKKYLAMELVHGQDLEKRIYATGPVIPSLAIAWMIQTCDILDYLHRQEQPLIHRDIKPANLMVRTANNQIAVLDFGAVKEIGTTPGTRIGAEGYCAPEQERGQPLTQSDLYAIGPTIIFLLTGENPFKFYRQKGRGFRFDVSKIPTITPKLRDVIERTTEPLPRDRFQSAKELAAALAACK,failed

# Source: a protein production outcome set (Wang et al. 2014)
